Experimental data: PMC5758563, “Structural analysis of mtEXO mitochondrial RNA degradosome reveals tight coupling of nuclease and helicase components”

Biological target: Cg-Dss1 (full-length, wild type) (Candida glabrata, UniProt Q6FJE0 24-923)
Test: footprinting (RNase I protection); 2 mM ATP, 3 mM MgCl2; RNase I footprinting: 100 nM RNA, 150 nM protein, 20 mM Tris pH 7.4, 50 mM NaCl, 3 mM MgCl2, with or without 2 mM ATP, 30 C; EDTA added before RNase I. Crystal
Details: protein: recombinant; tags: His6-MBP removed by TEV; label: 32P body label

B1: L1 RNA (79 nt) (structured_RNA)
RNA: GGAACUCCAUAUAUGGGCUAUGAACUAAUGACCCCGUAAUUGAUUACUAUUAGCCCGGGCAAUGUGCACAUGUACCCUA
binding result: binds
